Measurements from the supplement of paper PMC12764529.
± gives the half width of the 95% confidence interval.

Test: folding stability dG unfold from trypsin proteolysis; higher = more stable
Method in brief: (§1)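 Mini-proteins designed to be under 80 residues and free of cysteine were carried in a PA-tagged cDNA display construct and digested with trypsin and with chymotrypsin. Each protease was applied at 11 threefold-diluted concentrations, alongside a no-protease condition, before sequencing. K50 came from Bayesian fitting of the sequencing counts, and unfolding free energy was obtained by comparing it with a sequence-predicted unfolded-state K50 and a shared folded-state K50, for each protease separately or for both together. Designs were retained only if their AlphaFold2 dimer inter-PAE exceeded 15.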

Sequence	folding stability dG unfold
SAGGSATQVVLKITIKINKGEKEETREIVLPATDPEEAIAKVKKELKEKGIDAEIEELEILPVDLLSAGGSA [r15_165_JUSTAS]	1.31 ± 0.089 kcal/mol
SAMVLRLVVTVTGKIGDSLSTTTITREVSLEEYSEEELEALAEAVADAIRAANPEATVSLSILPEEELESAG [r14_723_JUSTAS]	2.47 ± 0.074 kcal/mol
SAGGKTIMIMFTPDNAEEIAETIVDEFGYDVKIEKVQPMPMKDPDGKQKAPYYMIEIEIKVPDPGQPLSAGG [r13_943_TrROS]	0.945 ± 0.033 kcal/mol
SAGMVIKVEVIYNGKKYTIEISEEQLKELLEKLKPGDEVEIEINGEKVLVRVEVVEPPEPSEEELKALKSAG [r5_669_TrROS_Hall]	0.944 ± 0.087 kcal/mol
SAGGSAGGDKNAKPQPIMIAIEIYNPNGRKQEHTFPFESLDDAKEFIEDWLPPGYQVKVDIYPVSAGGSAGG [r6_290_TrROS]	0.322 ± 0.1 kcal/mol
SAGGWEIVGSITIEHPNRPIIFPVFRDPEEGNVWVSIYRMDPENGKWQPIGVVPFPKGDAEDALDDISAGGS [r8_423_TrROS]	1.03 ± 0.054 kcal/mol
SAGGIVPLPNGHWVIMAQFEVDEGQTVDDAPEFAREIAKTFGIKPTQVQVDPEKGYVNVAIKIPPGALSAGG [r13_178_TrROS]	0.217 ± 0.11 kcal/mol
SAGGSAGGSAGSITLPDGLTLTWNPATNTLTITLTAPPPPTTTTTTKPAATTTTTTTTTTSAGGSAGGSAGG [r11_331_TrROS_Hall]	2.18 ± 0.086 kcal/mol
SAELIEALKKAGYRIKIEVEVTEVRVVRNEDGELKVEAKIKVKIEIEPLPPPPPPLSLEDLLDKNGKLVSAG [r14_569_TrROS_Hall]	3.26 ± 0.41 kcal/mol
SAGGSAKFKLEATPLEDGTLIIPIEIEVTVEKPFPDPNGIPKIKPVKKKFRFLIIKDGDEIKIFLGSAGGSA [r15_883_TrMRF]	1.59 ± 0.089 kcal/mol
SAGGSAGGSAGGSMKIVEVELIEYDEETKEFVYVFRVRLEDGSERLIVITPDGEMRVVPSAGGSAGGSAGGS [r4_35_TrROS_Hall]	2.61 ± 0.064 kcal/mol
SAGGSAGGKTYIVKIVVKNKNGEELELTLEVETEEEAKEAAEELAKKLEEAGYEIVKVEIKKLPSAGGSAGG [r6_869_TrROS_Hall]	3.64 ± 0.27 kcal/mol
SAGGSAGGSAGGAAPNTFKVRLELKVKVEKRTYKNEDGSTYEVDSISVELKIEIEPLPDSAGGSAGGSAGGS [r10_1212_TrROS_Hall]	3.85 ± 0.19 kcal/mol
SAGGSAGGMVVERKDMDPEEAVEDTKKRIKEETGWEVTEITVTEFPEEPRLVVTIKVKKPPEKSSAGGSAGG [r6_462_JUSTAS]	-0.287 ± 0.11 kcal/mol
SAGGSAGGSAGGMVIERPLPNGEPLLVELGRPASAPARVTVPNPGRPLGTITSLEELEERSAGGSAGGSAGG [r7_72_TrMRF]	-0.207 ± 0.11 kcal/mol
SAGGSAGIEERLKKLAEELGLEVKVTKVEVKVDGKEEVVVEVEVEPPPPPVEVKELSEEERKKAEESAGGSA [r15_256_TrROS_Hall]	1.27 ± 0.21 kcal/mol
SAGGSAGGSAGGSKPEVIKLKVKKIKVKKKKYDKNGKLVEEEEKEITVETTVFVPKEDLSAGGSAGGSAGGS [r4_425_TrROS_Hall]	-0.381 ± 0.18 kcal/mol
SAGGIRIKPGQILVIDIERPTGNERKIIIPMDDPEEVIEQLGFPPENFRIKDIEVVPMPPEQAKDFLESAGG [r13_850_TrROS]	-0.0896 ± 0.28 kcal/mol
SAGGSAIPGMPIKEIARALQDKFPPGKPPQIKIRNKNGETKTFEPNKTIDDIPMDGVVEIEIEFRPSAGGSA [r15_50_TrROS]	-0.52 ± 0.62 kcal/mol
SAGGDKNAKPIKPITISFTLEDGSKKTITATFYKDAVIVEITYINPKTGKPFTKTFVFKKKGVKLLLSAGGS [r16_419_TrMRF]	2.43 ± 0.096 kcal/mol
SAGGNIKIQVENHEDGWYMKIWVPGNGKEQEYPFEPGDTIDTLPPGAEPVKIEWFHMNDNPQEFELDSAGGS [r8_487_TrROS]	0.295 ± 0.11 kcal/mol

Test: folding stability dG unfold (combined trypsin and chymotrypsin); higher = more stable
Method in brief: as §1

Sequence	folding stability dG unfold
SPLELPSDEEITVNAEVLILPYNPETGEIEDEIPIPLPVKIKVKKDGSVEIEIDIPDSIPENVPIVLLLKSA [r9_90_TrMRF]	1.52 ± 0.19 kcal/mol
SAMLKLEITLPDGTVVEVEIPLERPVPPAGEEEALAAAEAVREAVAAALGLEDAEVTMEVEEVSPEELLSAG [r14_378_JUSTAS]	1.41 ± 0.2 kcal/mol
SAGGSAGGSAGGSMKNVPVTVEGSSSVVPLPDGSPVTVTELTTTTLGENGEVSTSTTVVSSAGGSAGGSAGG [r11_817_JUSTAS]	0.905 ± 0.083 kcal/mol
SMKTLIVEGMTPEEIRALAEEAAKKGEEVEIEIVVKDNEEIKEALEEAGVEVEEVEDPETKEKVLKVTVKSA [r9_759_TrROS_Hall]	0.327 ± 0.14 kcal/mol
SAMKFKKGAKIEIEVEKVEEKEIDGKTVAVYRMKIKIEVDGKKYEIEVEIYYDKETKEWKIVKVEIKEVSAG [r14_293_TrROS_Hall]	3.33 ± 0.19 kcal/mol
SANDAMRKMMENMSPEDMMEMVRPPVPPPPVVTIRVPIEDLPKFLQWLSEEFGVEIEREDGYLYITVTASAG [r14_7_TrROS]	1.22 ± 0.095 kcal/mol
SKKVTLPIRFPWNGWEIEITAEELAEKKGLDPEDLTIHVVMPGPGWMYTIKIDPDGIEIEPIGPVPPNDMSA [r9_819_TrROS]	2.54 ± 0.074 kcal/mol
SAGGSAGGSKNVKTVTIPFNNMSPSKFIEQIKNHPVDAIEIEMPDPWYRRFLNWLKDEGIKVISAGGSAGGS [r12_610_TrROS]	1.49 ± 0.12 kcal/mol
SAGGEIEIVVETPEDLEKAKELAEELAKALEEAGLEIEEVKVELVEETVVNEDGEEKKRYVLKITFPSAGGS [r16_591_TrROS_Hall]	2.97 ± 0.14 kcal/mol
SAGGSAGGSAGEEKEYRIVVPFDSDDPEAFVRAVFDGIPPDVPIKAIDFNPELGYGVVVASAGGSAGGSAGG [r11_698_TrMRF]	0.892 ± 0.11 kcal/mol
SATKEIEIEVNGRKLRIRIERKEDGSIKITIELPGMSAEEVKEALRKLLPPDAKITVDEITVTEYREEPSAG [r14_370_TrROS_Hall]	2.84 ± 0.3 kcal/mol
SAGGSAGGMTAVEVKEETVPITLTSSFFPGGVPVPGAAVSTITITTTTTIEPPTGKTVKVTVAGSAGGSAGG [r6_424_JUSTAS]	-0.423 ± 0.074 kcal/mol
SGSFKLLKVEEHPDNPSITAVLTFPDGSTATLRFRPDGSWTGYVESTGKPFTAVSGENELKLFVPEELTLSA [r9_233_TrMRF]	0.523 ± 0.095 kcal/mol
SAGGSAGGMKVKIKLGPGEEVEIEVVEDKETNKLYFKIVNKKTKKVYVFETLEEAKNMSLEELLSAGGSAGG [r6_739_TrROS_Hall]	3.22 ± 0.12 kcal/mol
SAGGSAGGGMPISISITVTLSDGTVLEFTVTVPENAPDPASVAAALAAEIKAAHPDVAVTFTPASAGGSAGG [r6_132_JUSTAS]	1.53 ± 0.077 kcal/mol
SAGSYKLVVKAKAPKGPARIRVFVRLPGGEEKPVAEAEVGSGEVADIEITFPSGKPIDPKNIRVEIVPPSAG [r5_287_TrMRF]	1.8 ± 0.058 kcal/mol
SADYVLYLVTLKVRRKVGDKEYELEVPLLILAPEDELDESEIEAIAREAAAELGAEVEEVKIERLPLNASAG [r14_278_TrMRF]	4.66 ± 0.059 kcal/mol
SAGGSAGGPNIRIIIKPDPENGTLKIWFVHPEPGRIQKYEFNMNGKWKIKEPVGPMKPGDPGLLSAGGSAGG [r6_149_TrROS]	1.33 ± 0.34 kcal/mol
SAGGSAMSKDVLFENGARITKFFPGKNYVIIETSPENPELLKELGITVIKEGPNRIIVPAKDFLDESAGGSA [r15_984_TrMRF]	-0.864 ± 0.8 kcal/mol
PETVTLTVEIEIEVRGPDGKPLTPEQVEELAKALAEELAAELGLEVEVTVTVEPVGPDGKYRITVTVTIRPS [r1_231_TrROS_Hall]	> 6 kcal/mol
SAGGSAGGSAGGLPEGWVLKTETKTVKLKVKVKVDGKEYEFEVEVKVTRIELVPKEELESAGGSAGGSAGGS [r10_300_TrROS_Hall]	3.76 ± 0.11 kcal/mol

Sequence	folding stability dG unfold
SAGGSATQVVLKITIKINKGEKEETREIVLPATDPEEAIAKVKKELKEKGIDAEIEELEILPVDLLSAGGSA [r15_165_JUSTAS]	1.27 ± 0.15 kcal/mol
SAMVLRLVVTVTGKIGDSLSTTTITREVSLEEYSEEELEALAEAVADAIRAANPEATVSLSILPEEELESAG [r14_723_JUSTAS]	2.58 ± 0.097 kcal/mol
SAGGKTIMIMFTPDNAEEIAETIVDEFGYDVKIEKVQPMPMKDPDGKQKAPYYMIEIEIKVPDPGQPLSAGG [r13_943_TrROS]	0.505 ± 0.094 kcal/mol
SAGMVIKVEVIYNGKKYTIEISEEQLKELLEKLKPGDEVEIEINGEKVLVRVEVVEPPEPSEEELKALKSAG [r5_669_TrROS_Hall]	1.69 ± 0.24 kcal/mol
SAGGSAGGDKNAKPQPIMIAIEIYNPNGRKQEHTFPFESLDDAKEFIEDWLPPGYQVKVDIYPVSAGGSAGG [r6_290_TrROS]	0.693 ± 0.16 kcal/mol
SAGGWEIVGSITIEHPNRPIIFPVFRDPEEGNVWVSIYRMDPENGKWQPIGVVPFPKGDAEDALDDISAGGS [r8_423_TrROS]	1.53 ± 0.16 kcal/mol
SAGGIVPLPNGHWVIMAQFEVDEGQTVDDAPEFAREIAKTFGIKPTQVQVDPEKGYVNVAIKIPPGALSAGG [r13_178_TrROS]	0.327 ± 0.25 kcal/mol
SAGGSAGGSAGSITLPDGLTLTWNPATNTLTITLTAPPPPTTTTTTKPAATTTTTTTTTTSAGGSAGGSAGG [r11_331_TrROS_Hall]	1.87 ± 0.14 kcal/mol
SAELIEALKKAGYRIKIEVEVTEVRVVRNEDGELKVEAKIKVKIEIEPLPPPPPPLSLEDLLDKNGKLVSAG [r14_569_TrROS_Hall]	2.95 ± 0.56 kcal/mol
SAGGSAKFKLEATPLEDGTLIIPIEIEVTVEKPFPDPNGIPKIKPVKKKFRFLIIKDGDEIKIFLGSAGGSA [r15_883_TrMRF]	2.31 ± 0.23 kcal/mol
SAGGSAGGSAGGSMKIVEVELIEYDEETKEFVYVFRVRLEDGSERLIVITPDGEMRVVPSAGGSAGGSAGGS [r4_35_TrROS_Hall]	3.26 ± 0.055 kcal/mol
SAGGSAGGKTYIVKIVVKNKNGEELELTLEVETEEEAKEAAEELAKKLEEAGYEIVKVEIKKLPSAGGSAGG [r6_869_TrROS_Hall]	4.02 ± 0.2 kcal/mol
SAGGSAGGSAGGAAPNTFKVRLELKVKVEKRTYKNEDGSTYEVDSISVELKIEIEPLPDSAGGSAGGSAGGS [r10_1212_TrROS_Hall]	5.66 ± 0.51 kcal/mol
SAGGSAGGMVVERKDMDPEEAVEDTKKRIKEETGWEVTEITVTEFPEEPRLVVTIKVKKPPEKSSAGGSAGG [r6_462_JUSTAS]	0.408 ± 0.098 kcal/mol
SAGGSAGGSAGGMVIERPLPNGEPLLVELGRPASAPARVTVPNPGRPLGTITSLEELEERSAGGSAGGSAGG [r7_72_TrMRF]	0.332 ± 0.13 kcal/mol
SAGGSAGIEERLKKLAEELGLEVKVTKVEVKVDGKEEVVVEVEVEPPPPPVEVKELSEEERKKAEESAGGSA [r15_256_TrROS_Hall]	1.13 ± 0.23 kcal/mol
SAGGSAGGSAGGSKPEVIKLKVKKIKVKKKKYDKNGKLVEEEEKEITVETTVFVPKEDLSAGGSAGGSAGGS [r4_425_TrROS_Hall]	0.182 ± 0.17 kcal/mol
SAGGIRIKPGQILVIDIERPTGNERKIIIPMDDPEEVIEQLGFPPENFRIKDIEVVPMPPEQAKDFLESAGG [r13_850_TrROS]	0.321 ± 0.17 kcal/mol
SAGGSAIPGMPIKEIARALQDKFPPGKPPQIKIRNKNGETKTFEPNKTIDDIPMDGVVEIEIEFRPSAGGSA [r15_50_TrROS]	0.0509 ± 0.19 kcal/mol
SAGGDKNAKPIKPITISFTLEDGSKKTITATFYKDAVIVEITYINPKTGKPFTKTFVFKKKGVKLLLSAGGS [r16_419_TrMRF]	3.02 ± 0.21 kcal/mol
SAGGNIKIQVENHEDGWYMKIWVPGNGKEQEYPFEPGDTIDTLPPGAEPVKIEWFHMNDNPQEFELDSAGGS [r8_487_TrROS]	0.421 ± 0.18 kcal/mol
